Consider two sequences from paper PMC10197177.

Common to all, as to assay: ELONA
Holding throughout (details): pH 7.4, room temperature, spike immobilized

The target of data set [1] is Spike protein, Beta (SARS-CoV-2 (Beta variant)) (UniProt P0DTC2).
The target in data set [2] is Spike protein, Alpha (SARS-CoV-2 (Alpha variant)) (UniProt P0DTC2).
Data set [3] has as its target Spike protein, Omicron (SARS-CoV-2 (Omicron variant)) (UniProt P0DTC2).
Data set [4] concerns the target Spike protein, Delta (SARS-CoV-2 (Delta variant)) (UniProt P0DTC2).

Broadly, the Kd is the concentration at which binding is half-saturated. Higher therefore signals lower affinity. For the sequence “ATCTACGAATTCTCCGCCAAGATAGAGGGTGGGCCGCGGAGAATTCACTGC [M40 (truncated working aptamer)]”, the Kd turned out to be 0.276 nM in data set [1], 0.28 nM in data set [2], 0.165 nM in data set [3] and 0.187 nM in data set [4].

With “AATGGATCCACATCTACGAGCTCGAACGCCCGGAGGAGACGGGGGCAGGGCGTGTTCACTGCAGACTTGACGAAGCT [K1 (truncated working aptamer)]”, the equilibrium dissociation constant (Kd) in data set [1] amounted to 0.034 nM; in data set [2] it was 0.034 nM; in data set [3], 0.026 nM; in data set [4] it was 0.037 nM.
